Measured values reported in paper PMC2725191.

Target: Biotinylated tubulin (bovine brain tubulin labelled with NHS-LC-biotin), held on a streptavidin layer (bovine) (UniProt Q6B856)
Test: dual polarization interferometry

In the case of “Tubulin (alpha/beta heterodimer), purified from bovine brain (from UniProt Q6B856 1-445) (complex)”, the rate of thickness increase after the inflection point (microtubule growth) was 0.436 nm/min.
